From the RNAGym collection of RNA variant scans (doi:10.1021/acssynbio.7b00057)

B1: Pistol ribozyme (parent)
chain: GGGUCGUUGUUCCAUAAUCGCGUGGAUAUGGCACGCAAGUUUCUACCGGGCACCGUAAAUGUCCGACUGGAGCCGUUCGGGCGGCUAUAAACAGACCUCAGGCCCGAAGCGUGGCGGCACCUGCCGCCGGUGGUAAAAAAGAUCGGAAGAGCACACGUCU

Variants of: B1
Assay: aptazyme ON/OFF ratio, guanine; higher = stronger switching; co-transcriptional cleavage with and without guanine

| Variant | aptazyme ON/OFF ratio |
| --- | --- |
| GGGUCGAGGCGUUAUAAUCGCGUGGAUAUGGCACGCAAGUUUCUACCGGGCACCGUAAAUGUCCGACUGGAGCCGUUCGGGCGGCUAUAAACAGACCUCAGGCCCGAAGCGUGGCGGCACCUGCCGCCGGUGGUAAAAAAGAUCGGAAGAGCACACGUCU | 1.31 |
| GGGUCGAGGCGUGAUAAUCGCGUGGAUAUGGCACGCAAGUUUCUACCGGGCACCGUAAAUGUCCGACUGGAGCCGUUCGGGCGGCUAUAAACAGACCUCAGGCCCGAAGCGUGGCGGCACCUGCCGCCGGUGGUAAAAAAGAUCGGAAGAGCACACGUCU | 1.44 |
| GGGUCGAGGCGUAAUAAUCGCGUGGAUAUGGCACGCAAGUUUCUACCGGGCACCGUAAAUGUCCGACUGGAGCCGUUCGGGCGGCUAUAAACAGACCUCAGGCCCGAAGCGUGGCGGCACCUGCCGCCGGUGGUAAAAAAGAUCGGAAGAGCACACGUCU | 1.26 |
| GGGUCGAGGGUUCAUAAUCGCGUGGAUAUGGCACGCAAGUUUCUACCGGGCACCGUAAAUGUCCGACUGGAGCCGUUCGGGCGGCUAUAAACAGACCUCAGGCCCGAAGCGUGGCGGCACCUGCCGCCGGUGGUAAAAAAGAUCGGAAGAGCACACGUCU | 1.37 |
| GGGUCGAGGGUGCAUAAUCGCGUGGAUAUGGCACGCAAGUUUCUACCGGGCACCGUAAAUGUCCGACUGGAGCCGUUCGGGCGGCUAUAAACAGACCUCAGGCCCGAAGCGUGGCGGCACCUGCCGCCGGUGGUAAAAAAGAUCGGAAGAGCACACGUCU | 1.21 |
| GGGUCGAGGGUACAUAAUCGCGUGGAUAUGGCACGCAAGUUUCUACCGGGCACCGUAAAUGUCCGACUGGAGCCGUUCGGGCGGCUAUAAACAGACCUCAGGCCCGAAGCGUGGCGGCACCUGCCGCCGGUGGUAAAAAAGAUCGGAAGAGCACACGUCU | 1.17 |
| GGGUCGAGGGUCCAUAAUCGCGUGGAUAUGGCACGCAAGUUUCUACCGGGCACCGUAAAUGUCCGACUGGAGCCGUUCGGGCGGCUAUAAACAGACCUCAGGCCCGAAGCGUGGCGGCACCUGCCGCCGGUGGUAAAAAAGAUCGGAAGAGCACACGUCU | 1.25 |
| GGGUCGAGGCGUCAUAAUCGCGUGGAUAUGGCACGCAAGUUUCUACCGGGCACCGUAAAUGUCCGACUGGAGCCGUUCGGGCGGCUAUAAACAGACCUCAGGCCCGAAGCGUGGCGGCACCUGCCGCCGGUGGUAAAAAAGAUCGGAAGAGCACACGUCU | 1.29 |
| GGGUCGAGGCGACAUAAUCGCGUGGAUAUGGCACGCAAGUUUCUACCGGGCACCGUAAAUGUCCGACUGGAGCCGUUCGGGCGGCUAUAAACAGACCUCAGGCCCGAAGCGUGGCGGCACCUGCCGCCGGUGGUAAAAAAGAUCGGAAGAGCACACGUCU | 1.43 |
| GGGUCGAGGCGGCAUAAUCGCGUGGAUAUGGCACGCAAGUUUCUACCGGGCACCGUAAAUGUCCGACUGGAGCCGUUCGGGCGGCUAUAAACAGACCUCAGGCCCGAAGCGUGGCGGCACCUGCCGCCGGUGGUAAAAAAGAUCGGAAGAGCACACGUCU | 1.33 |
| GGGUCGAGGCCUCAUAAUCGCGUGGAUAUGGCACGCAAGUUUCUACCGGGCACCGUAAAUGUCCGACUGGAGCCGUUCGGGCGGCUAUAAACAGACCUCAGGCCCGAAGCGUGGCGGCACCUGCCGCCGGUGGUAAAAAAGAUCGGAAGAGCACACGUCU | 1.53 |
| GGGUCGAGGCCCGAUAAUCGCGUGGAUAUGGCACGCAAGUUUCUACCGGGCACCGUAAAUGUCCGACUGGAGCCGUUCGGGCGGCUAUAAACAGACCUCAGGCCCGAAGCGUGGCGGCACCUGCCGCCGGUGGUAAAAAAGAUCGGAAGAGCACACGUCU | 1.13 |
| GGGUCGAGGCCCAAUAAUCGCGUGGAUAUGGCACGCAAGUUUCUACCGGGCACCGUAAAUGUCCGACUGGAGCCGUUCGGGCGGCUAUAAACAGACCUCAGGCCCGAAGCGUGGCGGCACCUGCCGCCGGUGGUAAAAAAGAUCGGAAGAGCACACGUCU | 1.06 |
| GGGUCGAGGCCCUAUAAUCGCGUGGAUAUGGCACGCAAGUUUCUACCGGGCACCGUAAAUGUCCGACUGGAGCCGUUCGGGCGGCUAUAAACAGACCUCAGGCCCGAAGCGUGGCGGCACCUGCCGCCGGUGGUAAAAAAGAUCGGAAGAGCACACGUCU | 1.12 |
| GGGUCGAGGGUGGAUAAUCGCGUGGAUAUGGCACGCAAGUUUCUACCGGGCACCGUAAAUGUCCGACUGGAGCCGUUCGGGCGGCUAUAAACAGACCUCAGGCCCGAAGCGUGGCGGCACCUGCCGCCGGUGGUAAAAAAGAUCGGAAGAGCACACGUCU | 1.3 |
| GGGUCGAGGGUGAAUAAUCGCGUGGAUAUGGCACGCAAGUUUCUACCGGGCACCGUAAAUGUCCGACUGGAGCCGUUCGGGCGGCUAUAAACAGACCUCAGGCCCGAAGCGUGGCGGCACCUGCCGCCGGUGGUAAAAAAGAUCGGAAGAGCACACGUCU | 1.26 |
| GGGUCGAGGGUGUAUAAUCGCGUGGAUAUGGCACGCAAGUUUCUACCGGGCACCGUAAAUGUCCGACUGGAGCCGUUCGGGCGGCUAUAAACAGACCUCAGGCCCGAAGCGUGGCGGCACCUGCCGCCGGUGGUAAAAAAGAUCGGAAGAGCACACGUCU | 1.21 |
| GGGUCGAGGCCGAAUAAUCGCGUGGAUAUGGCACGCAAGUUUCUACCGGGCACCGUAAAUGUCCGACUGGAGCCGUUCGGGCGGCUAUAAACAGACCUCAGGCCCGAAGCGUGGCGGCACCUGCCGCCGGUGGUAAAAAAGAUCGGAAGAGCACACGUCU | 1.07 |

| Variant | aptazyme ON/OFF ratio |
| --- | --- |
| GGGUCGAGGCCGUAUAAUCGCGUGGAUAUGGCACGCAAGUUUCUACCGGGCACCGUAAAUGUCCGACUGGAGCCGUUCGGGCGGCUAUAAACAGACCUCAGGCCCGAAGCGUGGCGGCACCUGCCGCCGGUGGUAAAAAAGAUCGGAAGAGCACACGUCU | 1.19 |
| GGGUCGAGGCCGGAUAAUCGCGUGGAUAUGGCACGCAAGUUUCUACCGGGCACCGUAAAUGUCCGACUGGAGCCGUUCGGGCGGCUAUAAACAGACCUCAGGCCCGAAGCGUGGCGGCACCUGCCGCCGGUGGUAAAAAAGAUCGGAAGAGCACACGUCU | 1.26 |
| GGGUCGAGGCGAAAUAAUCGCGUGGAUAUGGCACGCAAGUUUCUACCGGGCACCGUAAAUGUCCGACUGGAGCCGUUCGGGCGGCUAUAAACAGACCUCAGGCCCGAAGCGUGGCGGCACCUGCCGCCGGUGGUAAAAAAGAUCGGAAGAGCACACGUCU | 1.42 |
| GGGUCGAGGCGAUAUAAUCGCGUGGAUAUGGCACGCAAGUUUCUACCGGGCACCGUAAAUGUCCGACUGGAGCCGUUCGGGCGGCUAUAAACAGACCUCAGGCCCGAAGCGUGGCGGCACCUGCCGCCGGUGGUAAAAAAGAUCGGAAGAGCACACGUCU | 1.19 |
| GGGUCGAGGCGAGAUAAUCGCGUGGAUAUGGCACGCAAGUUUCUACCGGGCACCGUAAAUGUCCGACUGGAGCCGUUCGGGCGGCUAUAAACAGACCUCAGGCCCGAAGCGUGGCGGCACCUGCCGCCGGUGGUAAAAAAGAUCGGAAGAGCACACGUCU | 1.61 |
| GGGUCGAGGCGCAAUAAUCGCGUGGAUAUGGCACGCAAGUUUCUACCGGGCACCGUAAAUGUCCGACUGGAGCCGUUCGGGCGGCUAUAAACAGACCUCAGGCCCGAAGCGUGGCGGCACCUGCCGCCGGUGGUAAAAAAGAUCGGAAGAGCACACGUCU | 1.23 |
| GGGUCGAGGCGCGAUAAUCGCGUGGAUAUGGCACGCAAGUUUCUACCGGGCACCGUAAAUGUCCGACUGGAGCCGUUCGGGCGGCUAUAAACAGACCUCAGGCCCGAAGCGUGGCGGCACCUGCCGCCGGUGGUAAAAAAGAUCGGAAGAGCACACGUCU | 1.07 |
| GGGUCGAGGCGCUAUAAUCGCGUGGAUAUGGCACGCAAGUUUCUACCGGGCACCGUAAAUGUCCGACUGGAGCCGUUCGGGCGGCUAUAAACAGACCUCAGGCCCGAAGCGUGGCGGCACCUGCCGCCGGUGGUAAAAAAGAUCGGAAGAGCACACGUCU | 1.53 |
| GGGUCGAGGGUAAAUAAUCGCGUGGAUAUGGCACGCAAGUUUCUACCGGGCACCGUAAAUGUCCGACUGGAGCCGUUCGGGCGGCUAUAAACAGACCUCAGGCCCGAAGCGUGGCGGCACCUGCCGCCGGUGGUAAAAAAGAUCGGAAGAGCACACGUCU | 1.04 |
| GGGUCGAGGGUAGAUAAUCGCGUGGAUAUGGCACGCAAGUUUCUACCGGGCACCGUAAAUGUCCGACUGGAGCCGUUCGGGCGGCUAUAAACAGACCUCAGGCCCGAAGCGUGGCGGCACCUGCCGCCGGUGGUAAAAAAGAUCGGAAGAGCACACGUCU | 1.12 |
| GGGUCGAGGGUAUAUAAUCGCGUGGAUAUGGCACGCAAGUUUCUACCGGGCACCGUAAAUGUCCGACUGGAGCCGUUCGGGCGGCUAUAAACAGACCUCAGGCCCGAAGCGUGGCGGCACCUGCCGCCGGUGGUAAAAAAGAUCGGAAGAGCACACGUCU | 1.15 |
| GGGUCGAGGCGGGAUAAUCGCGUGGAUAUGGCACGCAAGUUUCUACCGGGCACCGUAAAUGUCCGACUGGAGCCGUUCGGGCGGCUAUAAACAGACCUCAGGCCCGAAGCGUGGCGGCACCUGCCGCCGGUGGUAAAAAAGAUCGGAAGAGCACACGUCU | 1.35 |
| GGGUCGAGGCGGUAUAAUCGCGUGGAUAUGGCACGCAAGUUUCUACCGGGCACCGUAAAUGUCCGACUGGAGCCGUUCGGGCGGCUAUAAACAGACCUCAGGCCCGAAGCGUGGCGGCACCUGCCGCCGGUGGUAAAAAAGAUCGGAAGAGCACACGUCU | 1.41 |
| GGGUCGAGGCGGAAUAAUCGCGUGGAUAUGGCACGCAAGUUUCUACCGGGCACCGUAAAUGUCCGACUGGAGCCGUUCGGGCGGCUAUAAACAGACCUCAGGCCCGAAGCGUGGCGGCACCUGCCGCCGGUGGUAAAAAAGAUCGGAAGAGCACACGUCU | 1.19 |
| GGGUCGAGGCCUAAUAAUCGCGUGGAUAUGGCACGCAAGUUUCUACCGGGCACCGUAAAUGUCCGACUGGAGCCGUUCGGGCGGCUAUAAACAGACCUCAGGCCCGAAGCGUGGCGGCACCUGCCGCCGGUGGUAAAAAAGAUCGGAAGAGCACACGUCU | 1.45 |
| GGGUCGAGGCCUUAUAAUCGCGUGGAUAUGGCACGCAAGUUUCUACCGGGCACCGUAAAUGUCCGACUGGAGCCGUUCGGGCGGCUAUAAACAGACCUCAGGCCCGAAGCGUGGCGGCACCUGCCGCCGGUGGUAAAAAAGAUCGGAAGAGCACACGUCU | 1.17 |
| GGGUCGAGGCCUGAUAAUCGCGUGGAUAUGGCACGCAAGUUUCUACCGGGCACCGUAAAUGUCCGACUGGAGCCGUUCGGGCGGCUAUAAACAGACCUCAGGCCCGAAGCGUGGCGGCACCUGCCGCCGGUGGUAAAAAAGAUCGGAAGAGCACACGUCU | 1.18 |
| GGGUCGAGGCGCCAUAAUCGCGUGGAUAUGGCACGCAAGUUUCUACCGGGCACCGUAAAUGUCCGACUGGAGCCGUUCGGGCGGCUAUAAACAGACCUCAGGCCCGAAGCGUGGCGGCACCUGCCGCCGGUGGUAAAAAAGAUCGGAAGAGCACACGUCU | 1.29 |
